{"source": "patent US20230285262A1", "about": "“Skin Compositions and Uses” (Stemetrix, Inc., priority 2013, published 2023)", "origin": "cited, not measured here", "key": {"[1]": {"system": "erythropoiesis-stimulating response", "conditions": "per mg of protein"}, "[2]": {"conditions": "commercial preparation judged 98% pure"}}, "data": [{"substance": "EGF: human epidermal growth factor, commercial preparation judged 98% pure by PAGE and HPLC", "values": [{"measurement": "ED50", "setting": "balb/c 3T3 cells; [2]", "value": "≤ 0.1", "unit": "ng/mL"}, {"measurement": "specific activity", "setting": "balb/c 3T3 cells; corresponding to ED50", "value": "≥ 1×10^7 units/mg"}]}, {"substance": "Human urinary EPO: isolated human urinary EPO, international reference standard for EPO assays", "values": [{"measurement": "specific activity", "setting": "[1]", "value": "about 70,000 U/mg"}]}, {"substance": "IGF-1: insulin-like growth factor-1, commercial preparation judged 98% pure by PAGE and HPLC", "values": [{"measurement": "ED50", "setting": "FDC-P1 cells; [2]", "value": 2.0, "unit": "ng/mL"}, {"measurement": "specific activity", "setting": "FDC-P1 cells; corresponding to ED50", "value": "≥ 5×10^5 units/mg"}]}, {"substance": "TGFβ3: human transforming growth factor beta-3, commercial preparation judged 98% pure by PAGE and HPLC", "values": [{"measurement": "expected ED50", "setting": "mouse HT-2 cells; [2]", "value": 0.05, "unit": "ng/mL"}, {"measurement": "specific activity", "setting": "mouse HT-2 cells; corresponding to ED50", "value": "≥ 2×10^7 units/mg"}]}]}
